# From patent publication US20260098075A1
# Numbering of substitutions follows the chain as printed.
# B1: 2A2 CAR against ROR1 with Spacer 28 (protein)
# chain: QVQLQQSGAELVRPGASVTLSCKASGYTFSDYEMHWVIQTPVHGLEWIGAIDPETGGTAYNQKFKGKAILTADKSSSTAYMELRSLTSEDSAVYYCTGYYDYDSFTYWGQGTLVTVSAGGGGSGGGGSGGGGSDIVMTQSQKIMSTTVGDRVSITCKASQNVDAAVAWYQQKPGQSPKLLIYSASNRYTGVPDRFTGSGSGTDFTLTISNMQSEDLADYFCQQYDIYPYTFGGGTKLEIKTGGGGSGSVCSRDFTPPMFWVLVVVGGVLACYSLLVTVAFIIFWVKRGRKKLLYIFKQPFMRPVQTTQEEDGCSCRFPEEEEGGCELRVKFSRSADAPAYQQGQNQLYNELNLGRREEYDVLDKRRGRDPEMGGKPRRKNPQEGLYNELQKDKMAEAYSEIGMKGERRRGKGHDGLYQGLSTATKDTYDALHMQALPPR
# B2: 2A2 CAR against ROR1 with Spacer 21 (protein)
# chain: QVQLQQSGAELVRPGASVTLSCKASGYTFSDYEMHWVIQTPVHGLEWIGAIDPETGGTAYNQKFKGKAILTADKSSSTAYMELRSLTSEDSAVYYCTGYYDYDSFTYWGQGTLVTVSAGGGGSGGGGSGGGGSDIVMTQSQKIMSTTVGDRVSITCKASQNVDAAVAWYQQKPGQSPKLLIYSASNRYTGVPDRFTGSGSGTDFTLTISNMQSEDLADYFCQQYDIYPYTFGGGTKLEIKTGGGGSGVPCPVPPMFWVLVVVGGVLACYSLLVTVAFIIFWVKRGRKKLLYIFKQPFMRPVQTTQEEDGCSCRFPEEEEGGCELRVKFSRSADAPAYQQGQNQLYNELNLGRREEYDVLDKRRGRDPEMGGKPRRKNPQEGLYNELQKDKMAEAYSEIGMKGERRRGKGHDGLYQGLSTATKDTYDALHMQALPPR
# B3: R11 CAR against ROR1 with Spacer 4 (protein)
# chain: QSVKESEGDLVTPAGNLTLTCTASGSDINDYPISWVRQAPGKGLEWIGFINSGGSTWYASWVKGRFTISRTSTTVDLKMTSLTTDDTATYFCARGYSTYYGDFNIWGPGTLVTISSGGGGSGGGGSGGGGSELVMTQTPSSTSGAVGGTVTINCQASQSIDSNLAWFQQKPGQPPTLLIYRASNLASGVPSRFSGSRSGTEYTLTISGVQREDAATYYCLGGVGNVSYRTSFGGGTEVVVKTGGGGSGELKTPLGDTTHTCPRCPEPKSCDTPPPCPRCPEPKSCDTPPPCPRCPEPKSCDTPPPCPRCPAPMFWVLVVVGGVLACYSLLVTVAFIIFWVKRGRKKLLYIFKQPFMRPVQTTQEEDGCSCRFPEEEEGGCELRVKFSRSADAPAYQQGQNQLYNELNLGRREEYDVLDKRRGRDPEMGGKPRRKNPQEGLYNELQKDKMAEAYSEIGMKGERRRGKGHDGLYQGLSTATKDTYDALHMQALPPR
# B4: R12 CAR with Spacer 1 (ROR1-specific R12 scFv, Gly-Ser linker, Spacer 1, CD28-derived transmembrane domain, 4-1BB costimulatory domain, CD3 zeta signaling … (protein)
# chain: QEQLVESGGRLVTPGGSLTLSCKASGFDFSAYYMSWVRQAPGKGLEWIATIYPSSGKTYYATWVNGRFTISSDNAQNTVDLQMNSLTAADRATYFCARDSYADDGALFNIWGPGTLVTISSGGGGSGGGGSGGGGSELVLTQSPSVSAALGSPAKITCTLSSAHKTDTIDWYQQLQGEAPRYLMQVQSDGSYTKRPGVPDRFSGSSSGADRYLIIPSVQADDEADYYCGADYIGGYVFGGGTQLTVTGGGGSGKPCPPCKCPMFWVLVVVGGVLACYSLLVTVAFIIFWVKRGRKKLLYIFKQPFMRPVQTTQEEDGCSCRFPEEEEGGCELRVKFSRSADAPAYQQGQNQLYNELNLGRREEYDVLDKRRGRDPEMGGKPRRKNPQEGLYNELQKDKMAEAYSEIGMKGERRRGKGHDGLYQGLSTATKDTYDALHMQALPPR
# B5: R12 CAR with Spacer 15 (protein)
# chain: QEQLVESGGRLVTPGGSLTLSCKASGFDFSAYYMSWVRQAPGKGLEWIATIYPSSGKTYYATWVNGRFTISSDNAQNTVDLQMNSLTAADRATYFCARDSYADDGALFNIWGPGTLVTISSGGGGSGGGGSGGGGSELVLTQSPSVSAALGSPAKITCTLSSAHKTDTIDWYQQLQGEAPRYLMQVQSDGSYTKRPGVPDRFSGSSSGADRYLIIPSVQADDEADYYCGADYIGGYVFGGGTQLTVTGGGGSGPPKPKDTMFWVLVVVGGVLACYSLLVTVAFIIFWVKRGRKKLLYIFKQPFMRPVQTTQEEDGCSCRFPEEEEGGCELRVKFSRSADAPAYQQGQNQLYNELNLGRREEYDVLDKRRGRDPEMGGKPRRKNPQEGLYNELQKDKMAEAYSEIGMKGERRRGKGHDGLYQGLSTATKDTYDALHMQALPPR
# B6: R12 CAR with Spacer 21 (protein)
# chain: B5 chain with P254V, K256C, K258V, D259P, T260P
# B7: 2A2 CAR against ROR1 with Spacer 13 (protein)
# chain: QVQLQQSGAELVRPGASVTLSCKASGYTFSDYEMHWVIQTPVHGLEWIGAIDPETGGTAYNQKFKGKAILTADKSSSTAYMELRSLTSEDSAVYYCTGYYDYDSFTYWGQGTLVTVSAGGGGSGGGGSGGGGSDIVMTQSQKIMSTTVGDRVSITCKASQNVDAAVAWYQQKPGQSPKLLIYSASNRYTGVPDRFTGSGSGTDFTLTISNMQSEDLADYFCQQYDIYPYTFGGGTKLEIKTGGGGSGPCPRCPAPMFWVLVVVGGVLACYSLLVTVAFIIFWVKRGRKKLLYIFKQPFMRPVQTTQEEDGCSCRFPEEEEGGCELRVKFSRSADAPAYQQGQNQLYNELNLGRREEYDVLDKRRGRDPEMGGKPRRKNPQEGLYNELQKDKMAEAYSEIGMKGERRRGKGHDGLYQGLSTATKDTYDALHMQALPPR
# B8: R11 CAR against ROR1 with Spacer 5 (protein)
# chain: QSVKESEGDLVTPAGNLTLTCTASGSDINDYPISWVRQAPGKGLEWIGFINSGGSTWYASWVKGRFTISRTSTTVDLKMTSLTTDDTATYFCARGYSTYYGDFNIWGPGTLVTISSGGGGSGGGGSGGGGSELVMTQTPSSTSGAVGGTVTINCQASQSIDSNLAWFQQKPGQPPTLLIYRASNLASGVPSRFSGSRSGTEYTLTISGVQREDAATYYCLGGVGNVSYRTSFGGGTEVVVKTGGGGSGCPRCPEPKSCDTPPPCPRCPEPKSCDTPPPCPRCPEPKSCDTPPPCPRCPAPMFWVLVVVGGVLACYSLLVTVAFIIFWVKRGRKKLLYIFKQPFMRPVQTTQEEDGCSCRFPEEEEGGCELRVKFSRSADAPAYQQGQNQLYNELNLGRREEYDVLDKRRGRDPEMGGKPRRKNPQEGLYNELQKDKMAEAYSEIGMKGERRRGKGHDGLYQGLSTATKDTYDALHMQALPPR
# B9: R11 CAR against ROR1 with Spacer 6 (protein)
# chain: QSVKESEGDLVTPAGNLTLTCTASGSDINDYPISWVRQAPGKGLEWIGFINSGGSTWYASWVKGRFTISRTSTTVDLKMTSLTTDDTATYFCARGYSTYYGDFNIWGPGTLVTISSGGGGSGGGGSGGGGSELVMTQTPSSTSGAVGGTVTINCQASQSIDSNLAWFQQKPGQPPTLLIYRASNLASGVPSRFSGSRSGTEYTLTISGVQREDAATYYCLGGVGNVSYRTSFGGGTEVVVKTGGGGSGEPKSCDTPPPCPRCPEPKSCDTPPPCPRCPEPKSCDTPPPCPRCPAPMFWVLVVVGGVLACYSLLVTVAFIIFWVKRGRKKLLYIFKQPFMRPVQTTQEEDGCSCRFPEEEEGGCELRVKFSRSADAPAYQQGQNQLYNELNLGRREEYDVLDKRRGRDPEMGGKPRRKNPQEGLYNELQKDKMAEAYSEIGMKGERRRGKGHDGLYQGLSTATKDTYDALHMQALPPR
# Biological target: human ROR1 (tyrosine-protein kinase transmembrane receptor ROR1) (human), Q01973
# Assay: cell-based or functional assay
# human ROR1 (tyrosine-protein kinase transmembrane receptor ROR1) (human), Q01973, sequence (Q01973 30-937): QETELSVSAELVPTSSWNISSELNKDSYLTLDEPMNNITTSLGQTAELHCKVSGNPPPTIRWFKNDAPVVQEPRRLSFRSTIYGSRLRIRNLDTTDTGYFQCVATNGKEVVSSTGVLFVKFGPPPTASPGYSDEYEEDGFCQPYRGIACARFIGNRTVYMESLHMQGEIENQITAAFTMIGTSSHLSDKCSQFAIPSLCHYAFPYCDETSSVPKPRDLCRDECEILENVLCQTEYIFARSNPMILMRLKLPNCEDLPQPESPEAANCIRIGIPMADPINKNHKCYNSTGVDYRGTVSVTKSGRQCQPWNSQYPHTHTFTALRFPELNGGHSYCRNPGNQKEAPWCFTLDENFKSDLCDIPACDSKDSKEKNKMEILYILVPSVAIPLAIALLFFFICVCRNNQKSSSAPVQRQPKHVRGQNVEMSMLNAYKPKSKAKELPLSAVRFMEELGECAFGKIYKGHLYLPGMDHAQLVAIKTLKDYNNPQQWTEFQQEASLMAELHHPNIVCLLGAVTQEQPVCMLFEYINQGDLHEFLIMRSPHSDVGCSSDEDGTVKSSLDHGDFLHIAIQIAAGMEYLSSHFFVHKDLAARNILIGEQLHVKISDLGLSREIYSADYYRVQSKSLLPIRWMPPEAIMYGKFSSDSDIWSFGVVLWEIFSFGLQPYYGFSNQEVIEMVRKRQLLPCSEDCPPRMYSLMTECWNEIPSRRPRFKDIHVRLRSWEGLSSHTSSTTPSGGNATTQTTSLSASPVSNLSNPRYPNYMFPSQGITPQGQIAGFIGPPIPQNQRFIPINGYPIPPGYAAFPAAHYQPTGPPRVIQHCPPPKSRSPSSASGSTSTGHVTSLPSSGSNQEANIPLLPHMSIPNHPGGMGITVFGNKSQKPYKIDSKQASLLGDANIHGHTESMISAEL
"A549 IFNg, donor 2089","A549 IFNg, donor 5018","A549 IL-2, donor 2089","A549 IL-2, donor 5018","A549 normalized AUC, donor 2089","A549 normalized AUC, donor 5018","H1975 IFNg, donor 2089","H1975 IFNg, donor 5018","H1975 IL-2, donor 2089","H1975 IL-2, donor 5018",Binder
49900,34200,1,2,43.6,61,78300,58100,1,8,B1
55400,41300,1,3,38,58.9,78000,61900,2,13,B2
–,37000,–,5,–,59.1,–,9130,–,1,B3
–,4350,–,0,–,80.9,–,4850,–,0,B4
–,7610,–,9,–,81.2,–,4320,–,10,B5
–,5000,–,8,–,85,–,2650,–,7,B6
46600,38900,1,3,42,61,67100,54300,1,14,B7
–,60900,–,10,–,55.8,–,17300,–,2,B8
–,46300,–,10,–,58.4,–,7170,–,1,B9

# Same assay, conditions: not given
"H1975 normalized AUC, donor 2089","H1975 normalized AUC, donor 5018","A549 IFNg, donor 7811","A549 IL-2, donor 7811","A549 normalized AUC, donor 7811","H1975 IFNg, donor 7811","H1975 IL-2, donor 7811","H1975 normalized AUC, donor 7811","A549 IFNg, donor 2735","A549 IL-2, donor 2735",Binder
39.5,44.3,–,–,–,–,–,–,–,–,B1
39.4,43.2,–,–,–,–,–,–,–,–,B2
–,94.5,46200,26,54.6,15900,4,83.1,–,–,B3
–,68.8,–,–,–,–,–,–,8940,4,B4
–,75,–,–,–,–,–,–,13800,8,B5
–,77.4,–,–,–,–,–,–,14100,7,B6
37.9,43.2,–,–,–,–,–,–,–,–,B7
–,86.7,83600,87,48.8,32400,16,69.6,–,–,B8
–,114,86700,89,51.4,11900,2,96.5,–,–,B9

# Same assay, conditions: not given
"A549 normalized AUC, donor 2735","H1975 IFNg, donor 2735","H1975 IL-2, donor 2735","H1975 normalized AUC, donor 2735",Binder
67.6,15700,10,67.6,B4
64,16900,17,63,B5
66.3,23200,26,61.5,B6
